From patent US20230235080A1, “TROPHOBLAST CELL-SURFACE ANTIGEN-2 (TROP-2) ANTIBODIES” (Bionecure Therapeutics, Inc., priority 2020, published 2023) come the findings set out here.

In general, EC50 refers to the midpoint of the concentration-response curve. Lower therefore signals a more potent agent.

Test [1] deals with T1, human Trop-2-ECD-6His fusion protein (human, UniProt P09758 27-274).
T1 construct: Expressed in a human 293 cell line; also called huTrop-2; human Trop-2 antigen
T1 sequence: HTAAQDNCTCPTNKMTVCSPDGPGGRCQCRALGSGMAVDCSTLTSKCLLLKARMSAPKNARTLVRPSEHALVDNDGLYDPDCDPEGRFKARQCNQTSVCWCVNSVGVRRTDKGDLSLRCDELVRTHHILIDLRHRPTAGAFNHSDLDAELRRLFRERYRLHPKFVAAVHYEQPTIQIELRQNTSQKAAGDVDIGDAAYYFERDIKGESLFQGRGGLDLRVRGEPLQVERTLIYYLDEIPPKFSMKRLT
The test can be described thus: ELISA on immobilized Trop-2-ECD-6His; control, 1 to 10 ratio. A general note: ELISA stands for enzyme-linked immunosorbent assay.

The target in test [2] is T1, human Trop-2-ECD-6His fusion protein. The test is described as follows: ELISA on immobilized Trop-2-ECD-6His; control, 1 to 1 ratio.
In a further test the test system is cynomolgus Trop-2-His. The test can be described thus: Cross-reactivity ELISA, cynomolgus Trop-2. It counts as binding. As to conditions: plate coated with 1 µg/mL antigen. As for the experimental part:
(§1) Cross-reactivity of chimeric IgG #118-2-5 and #125-1-5 to the Trop-2 antigens from different species was assessed by ELISA. In this experiment, a microtiter plate was coated overnight at 4° C. with 50 µL/well of 1 µg/mL human Trop-2ECD-6His, mouse Trop-2-His, cynomolgus Trop-2-His, human EPCAM-His, and a non-related protein. The plate was washed and blocked for 1 hr at 37° C., and then washed with wash buffer. Purified chimeric IgGs appropriately diluted in PBS were added to wells and incubated for 1 hr at 37° C. After washing, bound antibodies were detected using HRP-conjugated goat-anti-human IgG Ab. Color development and absorbance at OD450 nm were read. A non-specific mock mouse IgG and a non-specific mock human IgG were included as the negative controls, while anti-His antibody was used as a positive control.
(§2) The cross-reactivity of purified IgGs to the Trop-2 antigens from different species was tested by ELISA. In this experiment, a microtiter plate was coated overnight at 4° C. with 50 µL/well of 1 µg/mL human Trop-2ECD-6His, mouse Trop-2-His, cynomolgus Trop-2-His, human EPCAM-His, and a non-related protein. The plate was washed and blocked for 1 hr at 37° C., and then washed with wash buffer. […] After washing, bound antibodies were detected using HRP-conjugated goat-anti-human IgG antibody. Color development and absorbance at OD450 nm were read. […]

Another test addresses T2, mouse Trop-2-His (Mus musculus, UniProt Q8BGV3).
T2 sequence (Q8BGV3 25-317): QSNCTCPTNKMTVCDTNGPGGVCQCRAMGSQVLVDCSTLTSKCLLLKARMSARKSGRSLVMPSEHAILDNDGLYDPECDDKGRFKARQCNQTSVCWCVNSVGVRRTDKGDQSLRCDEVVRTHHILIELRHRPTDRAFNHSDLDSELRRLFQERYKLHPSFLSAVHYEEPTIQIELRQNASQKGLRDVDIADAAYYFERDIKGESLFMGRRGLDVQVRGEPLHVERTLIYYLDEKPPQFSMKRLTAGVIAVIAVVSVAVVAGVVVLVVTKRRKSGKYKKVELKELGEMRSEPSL
The test is described as follows: Cross-reactivity ELISA, mouse Trop-2. It counts as binding. The note with it: plate coated with 1 µg/mL antigen. The procedure:
as §1
(§3) The cross-reactivity of purified IgGs to the Trop-2 antigens from different species was tested by ELISA. In this experiment, a microtiter plate was coated overnight at 4° C. with 50 µL/well of 1 µg/mL human Trop-2ECD-6His, mouse Trop-2-His, cynomolgus Trop-2-His, human EPCAM-His, and a non-related protein. The plate was washed and blocked for 1 hr at 37° C., and then washed with wash buffer. Purified anti-Trop-2 antibodies appropriately diluted in PBS were added to wells and incubated for 1 hour at 37° C. After washing, bound antibodies were detected using HRP-conjugated goat-anti-human IgG antibody. Color development and absorbance at OD450 nm were read. A non-specific human IgG1 was included as a negative control, while hRS7 was used as a positive control.

For test [3], the target named is T3, human Trop-2-ECD-6His fusion protein (Homo sapiens, UniProt P09758).
T3 construct: made in house; host or cells: human 293 cell line
T3 sequence (P09758 with tags, fused parts or gaps): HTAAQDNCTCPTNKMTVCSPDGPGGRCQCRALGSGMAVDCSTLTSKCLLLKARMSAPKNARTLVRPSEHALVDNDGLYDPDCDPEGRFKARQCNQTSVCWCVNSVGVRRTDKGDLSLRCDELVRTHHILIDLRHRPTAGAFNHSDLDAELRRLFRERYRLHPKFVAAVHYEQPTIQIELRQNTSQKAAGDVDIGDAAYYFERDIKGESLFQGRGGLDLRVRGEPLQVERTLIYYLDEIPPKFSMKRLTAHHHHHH
The test can be described thus: Antigen binding assay (ELISA) on immobilized Trop-2-ECD-6His. As to conditions: for OD value, Conditioned Medium 1 to 1 ratio / OD value, Conditioned Medium 1 to 10 ratio: Table 3, ELISA absorbance at 405 nm. As for the experimental part: Using the HCVR sequence and LCVR sequence of mAbs #118-2-5 and #125-1-5, two murine-human chimeric IgG1 (hereinafter “chimeric IgG1”) was prepared which comprised the heavy chain sequences set forth in SEQ ID NOs: 47 and 49, and the light chain sequences set forth in SEQ ID NOs: 48 and 50. Nucleic acids encoded by SEQ ID NO: 19, 20 and SEQ ID NO: 21, 22 were amplified and inserted into pTT5 to make an expression plasmid of the full-length IgG. The heavy chain and light chain expression plasmids were used to co-transfect 100 mL HEK293-6E cells. The recombinant IgG secreted into to media was purified using protein A affinity. The purified IgG migrated as ~150 kDa band in SDS-PAGE under non-reducing conditions, ~55 kDa and ~30 kDA bands under reducing condition. The purity of the chimeric IgG is >90%. The binding affinity between the chimeric IgGs and a human Trop-2-ECD-6His fusion protein (SEQ ID NO:2) was determined by ELISA. The Trop-2-ECD-6His fusion protein was immobilized on the surface of a microplate wells and incubated with the chimeric IgGs. A secondary enzyme-labeled goat-anti-mouse IgG-AP was then added. After washing, the activity of the microplate well-bound enzyme was measured by adding the substrate. Color development and absorbance at 405 nm were read.

Test [4] concerns Trop-2 positive breast cancer cell line MDA-MB-468. The test is described as follows: Internalization assay by flow cytometry (Example 2 protocol). It counts as cell-based, human. As to conditions: Table 4; chimeric IgGs; 2 hours at 37° C.; 100 × (MFI4°C - MFI37°C) / MFI4°C. As for the experimental part: The chimeric IgG1 #118-2-5 and #125-1-5 were further evaluated by internalization assay using Trop-2 positive breast cancer cell line MDA-MB-468. MDA-MB-468 cells were seeded at 1×10^5 cell/well. Next, the chimeric or benchmark IgGs were added to cells in FACS buffer and incubated for 2 hours at 4° C. After incubation, the cells were washed to remove unbound antibody. The cells were then incubated at 37° C. After 2 hours, the cells were dissociated and stained with fluorescent-conjugated […] secondary antibodies for 30 minutes on ice in dark before being analyzed using Beckman flow cytometry system. The fluorescent intensity and cell binding percentage at each time point were analyzed by Beckman flow cytometric software. The amount of chimeric IgGs internalized into cells was determined using the following formula: % internalization rate = 100 × (MFI4°C - MFI37°C) / MFI4°C.
For orientation: A flow cytometer gives signals particle by particle.

For the next test, the target named is T4, human Trop-2ECD-6His (Homo sapiens, UniProt P09758).
T4 construct: made in house; host or cells: human 293 cell line
T4 sequence (P09758 with tags, fused parts or gaps): T3 sequence (P09758 with tags, fused parts or gaps)
The test is described as follows: Cross-reactivity ELISA, human Trop-2. It counts as binding. As to conditions: plate coated with 1 µg/mL antigen. The procedure: as §1, §2

The next test deals with non-related protein. The test can be described thus: Cross-reactivity ELISA, non-related protein. It counts as binding. The note with it: plate coated with 1 µg/mL protein. As for the experimental part:
as §1, §3

For another test, the target named is T5, human EPCAM-His (Homo sapiens, UniProt P16422).
T5 sequence (P16422 24-314): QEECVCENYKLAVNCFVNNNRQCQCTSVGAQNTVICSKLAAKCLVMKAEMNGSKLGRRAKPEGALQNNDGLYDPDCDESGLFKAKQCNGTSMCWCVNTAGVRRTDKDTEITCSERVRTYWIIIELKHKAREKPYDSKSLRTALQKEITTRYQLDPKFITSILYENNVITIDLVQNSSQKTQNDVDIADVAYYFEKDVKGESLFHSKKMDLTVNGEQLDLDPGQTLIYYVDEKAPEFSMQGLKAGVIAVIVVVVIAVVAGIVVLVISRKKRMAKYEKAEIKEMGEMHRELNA
The test can be described thus: Cross-reactivity ELISA, human EPCAM. It counts as binding. The note with it: plate coated with 1 µg/mL antigen. The procedure:
as §1, §3

The target in test [5] is human Trop-2 on Trop-2 positive cancer cells (human) (UniProt P09758). The test can be described thus: cell-based or functional assay.
Test [6] concerns the target T1, human Trop-2-ECD-6His fusion protein. The test can be described thus: antigen binding ELISA on immobilized human Trop-2-ECD-6His.

Consider BSA (from UniProt P02769 25-607), for which the figures for the OD (absorbance at 405 nm) in test [1] and in test [2] were 0.058 OD and 0.059 OD, respectively.

Regarding “hRS7: anti-Trop2 antibody used in sacituzumab govitecan (IMMU-132); used as a benchmark antibody [reference compound]”, the “binding to cynomolgus Trop-2 antigen (ELISA, OD450 nm)” value in the test with cynomolgus Trop-2-His is listed as “able to bind”. Also, the results for the “recognition of mouse Trop-2 (ELISA, OD450 nm)” value with mouse Trop-2-His and with mouse Trop-2-His (listed as benchmark IgG) were “some non-specific binding” and “did not recognize”, respectively. Moreover, in test [3], the “OD value, Conditioned Medium 1 to 1 ratio” value turned out to be 1.339. For the same molecule, the “OD value, Conditioned Medium 1 to 10 ratio” value in test [3] was determined as 1.457. In test [4], the “Internalization rate” value is 17.62%. In addition, the “binding to human Trop-2 antigen (ELISA, OD450 nm)” value with human Trop-2ECD-6His is “able to bind”. For the same molecule, the “recognition of the non-related protein (ELISA, OD450 nm)” value in the test with non-related protein is given as “some non-specific binding”; with non-related protein (listed as benchmark IgG), “did not recognize”. The “recognition of hEPCAM (ELISA, OD450 nm)” value was “some non-specific binding” with human EPCAM-His and “did not recognize” with human EPCAM-His (listed as benchmark IgG).

B1: #125-1-5 (antibody, listed as Mus musculus, V domains shown)
VH: QIQLVQSGPELVKPGASVKMSCKASGYTFTTYVIHWVKQKPGQGLEWIGYINPNNDGTKYNEKFKGKATLISDKSSTTAYMEVRGLTSEDSAVYYCARPHFETHAMDYWGQGTSVTVSS
VL: DIQMTQSPSSFSVSLGDSVTITCKASEDIFNRLAWYQQKPGNAPRLLISGATSLETGVPSRFSGGGSGKEYTLSITSLQNEDVATYYCQQYWNTWTFGGGTKLEIK
With B1, the “binding to cynomolgus Trop-2 antigen (ELISA, OD450 nm)” value in the test with cynomolgus Trop-2-His is given as “able to bind”. Also, the “recognition of mouse Trop-2 (ELISA, OD450 nm)” value with mouse Trop-2-His is recorded as “did not recognize”. In addition, in test [3], the “OD value, Conditioned Medium 1 to 1 ratio” value is listed as 1.572 and the “OD value, Conditioned Medium 1 to 10 ratio” value is on record as 1.539. Besides, the “binding affinity to Trop 2 compared with benchmark hRS7” value in test [3] (in words, chimeric IgGs, see OD value in Table 3) is reported as “higher binding affinity than the benchmark reference antibody hRS7”. Besides, in [4], the “Internalization rate” value came to 4.70%. Moreover, in the test with human Trop-2ECD-6His, the “binding to human Trop-2 antigen (ELISA, OD450 nm)” value was “able to bind”. Also, the “recognition of the non-related protein (ELISA, OD450 nm)” value in the test on non-related protein is “did not recognize”. Also, the “recognition of hEPCAM (ELISA, OD450 nm)” value with human EPCAM-His is listed as “did not recognize”.

B2: humanized IgG #118-2-5 Hu(A1)/LuX (antibody, V domains shown)
VH: QVQLQESGPGLVKPSETLSLTCTVSGFSLTSYGVNWIRQPPGKGLEWIGVMWAGGSTNYNSALMSRVTISVDTSKNQFSLKLSSVTAADTAVYYCARDENWDGAWFAYWGQGTLVTVSS
VL: DIVMTQSPDSLAVSLGERATINCKSSQSLLNSGTRKNYLAWYQQKPGQPPKLLIYWASSRESGVPDRFSGSGSGTDFTLTISSLQAEDVAVYYCKQSYNLFTFGGGTKVEIK
notes: Second round of humanization
In [5], B2 showed an Internalization rate (flow cytometry, MDA-MB-468 cells) of 56%. The EC50 in [6] was found to be 280 pM.
